From the nanobody polyreactivity screen of Harvey et al. (2022)

experiment: yeast display, Sf9 membrane polyspecificity reagent, FACS + sequencing; frameworks hold sequencing errors
Outline: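 After 36–48 hours of galactose induction, yeast (Saccharomyces cerevisiae BJ5465) displaying a synthetic nanobody library were stained at 4 °C for 1 hour with 10% biotinylated, detergent-solubilized Sf9 membrane reagent. Streptavidin microbeads enriched the stained cells before FACS sorting into low and high (top ~1%) gates on anti-HA and streptavidin fluorescence. Each clone's polyreactivity label reflects its gate of origin.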

| Sequence | polyreactivity (PSR sort gate) |
| --- | --- |
| QVQLVESGGGLVQAGGSLRLSCAASGSIFVHYAMGWYRQAPGKERELVAAISRSGGSTYYADSVKGRFTISRDNAKNTFYLQMNSLKPEDTAVYYCAADSGYLSPYDYWGHGTQVTVSS | low polyreactivity |
| QVQLVESGGGLVQAGGSLRLSCAASGSIFVINAMGWYRQAPGKERELVAAISYSGTGTYYADSVKGRFTISRDNAKNTVYLQMNSLKPEDTAVYYCAADYYYRYRIYDYWGQGTQVTVSS | low polyreactivity |
| QVQLVESGGGLVQAGGSLRLSCAASGSIFVKNAMGWYRQAPGKERELVARITYSGGSTYYADSVKGRFTISRDNAKNTVYLQMNSLKPEDTADYYCDTDGNLRTAGYAYDHYYWGQGTQVTVSS | high polyreactivity |
| QVQLVESGGGLVQAGGSLRLSCAASGSIFVKNAMGWYRQAPGKERELVAVITIRTATTYYADSVKGRFTISRDNAKNTVYLQMNSLKPEDTAVYYCAAAKRQRGYLQREGNYWGQGTQVTVSS | low polyreactivity |
| QVQLVESGGGLVQAGGSLRLSCAASGSIFVKYAMGWYRQAPGTERELVAAISGSGGSTYYADSVKGRFTISRDNAKNTVYLQMNSLKPEDTAVYYCAADDYFYSGRYGFEYWGQGTQVTVSS | low polyreactivity |
| QVQLVESGGGLVQAGGSLRLSCAASGSIFVLNAMGWYRQAPGKERELVAAISSADSTTYADSVKGRFTISRDNAKNSVYLQMNSLKPEDTAVYYCAADWWYVLIFDYWGQGTQVTVSS | low polyreactivity |
| QVQLVESGGGLVQAGGSLRLSCAASGSIFVLNAMGWYRQAPGKERELVATITWRGGSTYYADSVKGRFTISRDNAKNTVYLQMNSLKPEDTAVYYCAKVDIRHHRFYYWGHGTQVTVSS | low polyreactivity |
| QVQLVESGGGLVQAGGSLRLSCAASGSIFVLYAMGWYRQAPGKERELVAAINYDGASTYYADSVKGRFTISRDNAKNTVYLQMNSLKPEDTAVYYCAARWQFNIDVQLYLFEYWGQGTEVTVSS | low polyreactivity |
| QVQLVESGGGLVQAGGSLRLSCAASGSIFVLYAMGWYRQAPGKERELVAAITASGGSTHYADSVKGRFTISRDNAKNTVYLQMNSLKPEDTAVYYCNADVYTEYDYWGQGTQVTVSS | low polyreactivity |
| QVQLVESGGGLVQAGGSLRLSCAASGSIFVLYAMGWYRQAPGKERELVATITWSGDSTYYADSVKGRFTISRDNAKNTVYLQMNSLKPEDTAVYYCNKRIWDQYDWGQGTQVTVSS | low polyreactivity |
| QVQLVESGGGLVQAGGSLRLSCAASGSIFVLYTIGWYRQAPGKERELVGAISYSGGSTNYADSVKGRFTISRDNAKNTVYLQMNSLKPEDTSVYYCADRASKGHKYWGQGTQVTVSS | high polyreactivity |
| QVQLVESGGGLVQAGGSLRLSCAASGSIFVLYTMGWYRQAPGKERELVAAISYSGGSTNYADSVKGRFTISRDNAKNTVYLQMNSLKPEDTAVYYCAARASKGHKYWGQGTQVTVSS | high polyreactivity |
| QVQLVESGGGLVQAGGSLRLSCAASGSIFVNYAMGWYSQAPGTERELVAAISWRGGITYGVSVKGRFTISRDNAKNTVYLQMNSLKPEDTADYYSNTDGDDFFHVIYDYWAQGTQVTVSS | low polyreactivity |
| QVQLVESGGGLVQAGGSLRLSCAASGSIFVPYAMGWYRQAPGKERELVAAISSGGSTNYADSVKGRFTISRDNAKNTVYLQMNSLKPEDTAVYYCNADYSVYIIADEYDYWGQGTQVTVSS | low polyreactivity |
| QVQLVESGGGLVQAGGSLRLSCAASGSIFVPYAMGWYRQAPGKERELVASINWNGSSTYADSVKGRFTISRDNAKNSVYLQMNSLKPEDTAVYYCNADYNRNSVQFSLYDYWGQGTQVTVST | low polyreactivity |
| QVQLVESGGGLVQAGGSLRLSCAASGSIFVPYAMGWYRQAPGKERELVAVITSGGSTYYADSVKGRFTISRDNAKNTVFLQMNSLKPEDTAVYYCAVDGGEFSSYGYWGQGTQVTVSS | low polyreactivity |
| QVQLVESGGGLVQAGGSLRLSCAASGSIFVPYTMGWYRQAPGKERELVASISYSGGTTYYADSVKGRFTISRDNAKNTVYLQMNSLKPEDTAVYYCAAQTLDGYDYWGQGTQVTVSS | low polyreactivity |
| QVQLVESGGGLVQAGGSLRLSCAASGSIFVQYAMGWYRQAPGKERELVATISSSGGSTYYADSVKGRFTISRDNAKNTVYLQMNSLKPEDTAVYYCAADWTLDPSYGYYADDYWGQGTQVTVST | low polyreactivity |
| QVQLVESGGGLVQAGGSLRLSCAASGSIFVRNAMGWYRQAPGKEREFVATITSSGGTTYYADSVKGRFTISRDNAKNTVYLQMNSLKPDDTAVYYCNADAGWYDWVYYVGRDYWGQGTQVTVSS | low polyreactivity |
| QVQLVESGGGLVQAGGSLRLSCAASGSIFVRNAMGWYRQAPGKERELVAAITARGGSTYYADSVKGRFTISRDNAKNTVYLLMHSLKPEDTAVYYCARSYYYRGWAQWRYDYWGQGTQVTVSS | high polyreactivity |
| QVQLVESGGGLVQAGGSLRLSCAASGSIFVRNGMGWYRQAPGKERELVASITSGTITYYADSVKGRFTISRDNAKNTVYLQMNSLKPEDTAVYYCNAGWRSSRMEYWGQGTQVTVSS | high polyreactivity |
| QVQLVESGGGLVQAGGSLRLSCAASGSIFVRNVMGWYRQAPGKERELVAGISWNGGSTFNADSVKGRFTISRDNAKNTVYLQMNSLKQEDTAVYYCAARGRHSGYYSFPYYYWGQGTQVTVSS | low polyreactivity |

| Sequence | polyreactivity (PSR sort gate) |
| --- | --- |
| QVQLVESGGGLVQAGGSLRLSCAASGSIFVRNVMGWYRQPPGKERELVATIRYRGGSTYYADSVKGRFTISRDYAKNTVYLQMNSLKPEDTAVYYCNARYLWADEYYYWGQGTQVTVSS | low polyreactivity |
| QVQLVESGGGLVQAGGSLRLSCAASGSIFVRYAMGWYRQAPGKERELVAAISSGGRTYYADSVKGRFTISRDNAKYTVYLQMNSLKPEDTAVYYCNAVKRVPSLGPYDYWGQGTQVTVSS | high polyreactivity |
| QVQLVESGGGLVQAGGSLRLSCAASGSIFVRYAMGWYRQAPGKERELVASIRSRGDSTYYADSVKGRFTISRDNAKNTVYLQMNSLKPEDTAVYYCAARRYPPRMDYWGQGTQVTVSS | high polyreactivity |
| QVQLVESGGGLVQAGGSLRLSCAASGSIFVRYAMGWYRQAPGKERELVAVISSDGRTYYADSVKGRFTISRDNAKNTVYLQMNSLKPEDTAVYYCAKRAWGFGGYDYWGQGTQVTVSS | low polyreactivity |
| QVQLVESGGGLVQAGGSLRLSCAASGSIFVRYTMGWYRQAPGKETELVAAISWGGGSTYYADSVKGRFTISRDNAKNSVYLQMNSLKPEDTAVYYCNKRYIQLYDYWGQGTKVTVSS | low polyreactivity |
| QVQLVESGGGLVQAGGSLRLSCAASGSIFVSNAMGWYRQAPGKERELVAAITSSGSTDYADSVKGRFTISRDNAKNTVYLQMNSLKPDDTAVYYCAAESDHTFFLWSLNDSWGQGTQVTVSS | low polyreactivity |
| QVQLVESGGGLVQAGGSLRLSCAASGSIFVSNTMGWYRQAPGKEREMVASIRETAGSTNYADSVKGRFTISRDYAKNTFYLQMNSLKPEDTAVYYCAARYSPTRYHYGYWGQGTQVTVSS | low polyreactivity |
| QVQLVESGGGLVQAGGSLRLSCAASGSIFVTNPMGWYRQAPGKERELVAAIRGGGGSTYYADSVKGRFTISRDNAKNTVYLQMNSLKPEDTAVYYCNADRRGYLQSEMDYWGQGTQVTVSS | low polyreactivity |
| QVQLVESGGGLVQAGGSLRLSCAASGSIFVTYAMGWYRQAPGKERELVAAISTSGGSTYADSVKGRFTISRDNAKNTVYLQMNSLKPEDTAVYYCNADDPGYAVPWYWFKSDYWGQGTQVTVSS | low polyreactivity |
| QVQLVESGGGLVQAGGSLRLSCAASGSIFVTYAMGWYRQAPGKERELVAVITWGGGSTYYADSVKGRFTISRDNAKNTVYLQMNSLKPEDTAVYYCAKDSYYYRRDVTVDYWGQGTQVTVSS | low polyreactivity |
| QVQLVESGGGLVQAGGSLRLSCAASGSIFVTYDLGWYRQAAGKERELVAGISGSGSTNYADSVKGRFTISRDNAKNTVYLQMNSLKPEDTAVYYCNTDGLWSAEYDYWGQGTQVTVSS | low polyreactivity |
| QVQLVESGGGLVQAGGSLRLSCAASGSIFVVYAMGWYRQAPGKERELVASIRTGGSTNYADSVKGRFTISRDNAKNTVYLQMNSLKPEDTAVYYCAAASWNSNSHYYVARYYYWGHGTQVTVSS | high polyreactivity |
| QVQLVESGGGLVQAGGSLRLSCAASGSIFVVYGMGWYRQAPGKERELVAAISGGITNYADSVKGRFTISRDNAKNTVYLQMNSLKPEDTAVYYCATVDGAYQYTYDYWGQGTQVTVSS | low polyreactivity |
| QVQLVESGGGLVQAGGSLRLSCAASGSIFVVYSMGWYRQAPGKERELVAAISWGIGSTYYADSVKGRFTISRDNAKNTVYLQMNSLKPEDTALYYCAADTDIVLYDYWGQGTQVTVSS | low polyreactivity |
| QVQLVESGGGLVQAGGSLRLSCAASGSIFVWNAMGWYRQAPGKERELVAAISYTDGSTYYADSVKGRFTISRDNAKNTVYLQMNSLKPEDTAVYYCAAAITPSYTGSEYDYWGQGTQVTVSS | low polyreactivity |
| QVQLVESGGGLVQAGGSLRLSCAASGSIFVWNAMGWYRQAPGKERELVARIRYSSNTYYADSVKGRFTISRDNAKNTVYLQMNSLKPEDTAVYYCAAGSTRYAGWTYNYWGQGTQVTVSS | high polyreactivity |
| QVQLVESGGGLVQAGGSLRLSCAASGSIFVWYAMGWYRQAPGKERELVAAINWSGGRTYYADSVKGRFTISRDNAKNTVYLQMNSLKPEDTAVSYCNKVVPGYSAAKYDYWGQGTQVTVSS | high polyreactivity |
| QVQLVESGGGLVQAGGSLRLSCAASGSIFVWYAMGWYRQAPGKERELVAAISSSGDNTYYADSVKGRFTISRDNAKNTVYLQMNSLKPEDTAVYYCAAKSYWGQGTQVTVSS | high polyreactivity |
| QVQLVESGGGLVQAGGSLRLSCAASGSIFVYNTMGWYREAPGKERELVASITYSGGSTYYADSVKGRFTISRDNAKNTVYLQMNSLKPEDTAVYYCNTDDVALQWDWYPYPYDYWGQGTQVTVSS | low polyreactivity |
| QVQLVESGGGLVQAGGSLRLSCAASGSIFVYNVMGWYRQAPGKERELVAAINYSGVSTYYADSVKGRFTISRDNAKNTVYLQMNSLKPEDTAVYYCAAEYEFGHSSTPMDYWGQGTQVTVSS | high polyreactivity |
| QVQLVESGGGLVQAGGSLRLSCAASGSIFVYYAMGWYRQAPGKEREFVATISSSGGSTYYADSVKGRFTISRDNAKNTVYLQRNSLKPEDTAVYYCNRRYFFFYGHSFDYWGQGTQVTVSS | high polyreactivity |
